Patent publication US9943596B2, “Combination therapy using dual inhibitor of c-MET and EGFR and IGF-1R inhibitor” (Samsung Electronics Co., Ltd., priority 2014, dated 2018)

How the values were obtained:
[1] = test system: gastric cancer cell line SNU668; experiment: cell proliferation assay (CellTiter Glo), SNU668; format: cell-based; details: ME22S 1/5 dilutions from 60 nM, alone or with linsitinib 10 μM, 72 hours, FIG. 2
Method: (§1) 72 hours after the treatment with the antibody and/or the inhibitor drug, the number of living cells was counted using a CellTiter Glo assay (Promega, G7573). This assay measures the amount of ATP which reflects metabolism of living cells, thereby counting the number of living cells.
(§2) 72 hours after the co-treatment, the cell number was measured by CellTiter Glo assay (Promega, G7573).

[2] = test system: lung cancer cell line HCC827; experiment: cell proliferation assay (CellTiter Glo), HCC827; format: cell-based; details: ME22S 1/5 dilutions from 150 nM and/or linsitinib 10 μM, 72 hours, FIGS. 3A, 3B
Method: as §1
(§3) 72 hours after the co-treatment, the number of living cells was counted by CellTiter Glo assay (Promega, G7573).

[3] = test system: L3-1Y/IgG2 resistant MKN45re#1 and MKN45re#24 cell lines; experiment: cell proliferation assay (CellTiter Glo), anti-c-Met antibody resistant MKN45; format: cell-based
Method: To obtain anti-c-Met antibody resistant MKN45 gastric cancer cells, MKN45 gastric cancer cells were administered with L3-1Y/IgG2 for at least 3 months by increasing the administration concentration. The amount of L3-1Y/IgG2 administered was increased from 1 μg/ml to 10 μg/ml, until resistance to L3-1Y/IgG2 is induced. The obtained L3-1Y/IgG2 resistant clones were named as MKN45re#1 and MKN45re#24, respectively.
72 hours after the co-treatment, the number of living cells was counted by CellTiter Glo assay (Promega, G7573). […] For comparison, the same experiment was preformed except that cells were treated with ME22S alone at the 1/5 diluted concentration starting from 10 nM.

[4] = test system: gastric cancer cell line MKN45; experiment: cell proliferation assay (CellTiter Glo), MKN45; format: cell-based; details: ME22S 1/5 dilutions from 10 nM and/or linsitinib 10 μM, 72 hours, FIGS. 4A, 4B
Method: as §1, §3

[5] = test system: gastric cancer cell line SNU5; experiment: cell proliferation assay (CellTiter Glo), SNU5; format: cell-based; details: ME22S 1/5 dilutions from 60 nM, alone or with linsitinib 10 μM, 72 hours, FIG. 2
Method: as §1, §2

c-Met = c-Met (Homo sapiens, UniProt P08581); experiment: specificity of expressed scFv of huAbF46; format: binding; details: after expression
Text: For use in constructing an scFv of the huAbF46 antibody from the heavy and light chain variable regions of the huAbF46 antibody, a gene was designed to have the structure of “VH-linker-VL” for each of the heavy and the light chain variable region, with the linker including the amino acid sequence “[…]” (SEQ ID NO: 54). A polynucleotide sequence (SEQ ID NO: 55) encoding the designed scFv of huAbF46 was synthesized in Bioneer and an expression vector for the polynucleotide had the nucleotide sequence of SEQ ID NO: 56.

c-Met, sequence (P08581 25-1390): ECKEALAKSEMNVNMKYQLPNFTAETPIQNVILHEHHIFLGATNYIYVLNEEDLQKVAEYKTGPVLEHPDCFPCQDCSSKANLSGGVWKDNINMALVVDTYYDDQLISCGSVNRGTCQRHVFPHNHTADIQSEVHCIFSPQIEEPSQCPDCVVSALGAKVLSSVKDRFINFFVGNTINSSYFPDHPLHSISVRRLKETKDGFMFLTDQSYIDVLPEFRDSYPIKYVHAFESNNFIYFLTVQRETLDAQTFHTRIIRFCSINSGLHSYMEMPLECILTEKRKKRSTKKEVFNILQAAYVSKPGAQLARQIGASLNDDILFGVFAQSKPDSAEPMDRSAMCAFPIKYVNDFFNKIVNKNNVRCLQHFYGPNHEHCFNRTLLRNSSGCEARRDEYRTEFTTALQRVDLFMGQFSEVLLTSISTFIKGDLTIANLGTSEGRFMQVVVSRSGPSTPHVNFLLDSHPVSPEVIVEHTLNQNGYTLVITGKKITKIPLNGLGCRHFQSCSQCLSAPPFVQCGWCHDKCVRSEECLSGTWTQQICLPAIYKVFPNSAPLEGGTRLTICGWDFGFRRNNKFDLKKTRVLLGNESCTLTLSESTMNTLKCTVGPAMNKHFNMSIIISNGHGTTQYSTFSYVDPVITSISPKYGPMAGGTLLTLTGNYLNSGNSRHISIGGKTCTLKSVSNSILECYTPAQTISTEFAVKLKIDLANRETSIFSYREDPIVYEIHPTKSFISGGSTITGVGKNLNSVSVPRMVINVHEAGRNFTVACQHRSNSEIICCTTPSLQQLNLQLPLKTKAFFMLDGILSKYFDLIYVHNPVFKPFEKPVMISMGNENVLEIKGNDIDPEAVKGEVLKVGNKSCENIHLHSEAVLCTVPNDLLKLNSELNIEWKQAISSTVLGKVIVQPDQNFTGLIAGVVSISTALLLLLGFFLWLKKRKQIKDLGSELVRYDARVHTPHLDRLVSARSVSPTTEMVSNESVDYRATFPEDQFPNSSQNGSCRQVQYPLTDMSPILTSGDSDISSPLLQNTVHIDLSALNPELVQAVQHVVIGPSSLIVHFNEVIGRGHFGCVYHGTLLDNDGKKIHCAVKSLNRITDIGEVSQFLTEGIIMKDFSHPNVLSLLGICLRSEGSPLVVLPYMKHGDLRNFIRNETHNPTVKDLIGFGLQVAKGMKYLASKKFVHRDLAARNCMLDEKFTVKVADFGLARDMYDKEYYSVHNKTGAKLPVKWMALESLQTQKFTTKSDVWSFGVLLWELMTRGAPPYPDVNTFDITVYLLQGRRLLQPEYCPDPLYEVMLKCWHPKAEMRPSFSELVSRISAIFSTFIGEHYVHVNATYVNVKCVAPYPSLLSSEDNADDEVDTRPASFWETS

Row | specificity to c-Met (c-Met) | Molecule | cell proliferation inhibition effect [1] | cancer cell proliferation inhibition effect [2] | cancer cell proliferation inhibition effect ([3]; MKN45re#1 (linsitinib 10 μM) or MKN45re#24 (linsitinib 2.5 μM), ME22S 1/5 dilutions from 10 nM, 72 hours, FIG. 5) | resistance of the cell line to the antibody ([3]; anti-c-Met antibody (L3-1Y/IgG2) resistant MKN45 gastric cancer cell line) | cancer cell proliferation inhibition [4] | cell proliferation inhibition effect [5]
1 |  | ME22S: anti-c-Met/anti-EGFR bispecific antibody in which the modified anti-EGFR scFv is fused at the c-terminal of L3-1Y-IgG2 (antibody) heavy: EVQLVESGGGLVQPGGSLRLSCAASGFTFTDYYMSWVRQAPGKGLEWLGFIRNKANGYTTEYSASVKGRFTISRDNSKNTLYLQMNSLRAEDTAVYYCARDNWFAYWGQGTLVTVSSASTKGPSVFPLAPCSRSTSESTAALGCLVKDYFPEPVTVSWNSGALTSGVHTFPAVLQSSGLYSLSSVVTVPSSNFGTQTYTCNVDHKPSNTKVDKTVERKCCVECPPCPAPPVAGPSVFLFPPKPKDTLMISRTPEVTCVVVDVSHEDPEVQFNWYVDGVEVHNAKTKPREEQFNSTFRVVSVLTVVHQDWLNGKEYKCKVSNKGLPAPIEKTISKTKGQPREPQVYTLPPSREEMTKNQVSLTCLVKGFYPSDIAVEWESNGQPENNYKTTPPMLDSDGSFFLYSKLTVDKSRWQQGNVFSCSVMHEALHNHYTQKSLSLSPGKGGGGSGGGGSEVQLLESGGGLVQPGGSLRLSCAASGFTFSNYDMSWVRQAPGKCLEWVSGISHSSGSKYYADSVKGRFTISRDNSKNTLYLQMNSLRAEDTAVYYCAKDATPRPLKPFDYWGQGTLVTVSSGGGGSGGGGSGGGGSQSVLTQPPSASGTPGQRVTISCTGSSSNIGNNDVSWYQQLPGTAPKLLIYDDNKRPSGVPDRFSGSKSGTSASLAISGLRSEDEADYYCGSWDASLNAYVFGCGTKLTVLG light: DIQMTQSPSSLSASVGDRVTITCKSSQSLLASGNQNNYLAWYQQKPGKAPKMLIIWASTRVSGVPSRFSGSGSGTDFTLTISSLQPEDFATYYCQQSYSRPYTFGQGTKVEIKRTVAAPSVFIFPPSDEQLKSGTASVVCLLNNFYPREAKVQWKVDNALQSGNSQESVTEQDSKDSTYSLSSTLTLSKADYEKHKVYACEVTHQGLSSPVTKSFNRGEC | does not exhibit a cell proliferation inhibition effect | not observed | no cancer cell proliferation inhibition effect | resistant | can inhibit proliferation | has a cell proliferation inhibition effect
2 | exhibit specificity to c-Met | scFv of huAbF46: scFv of structure VH-linker-VL from the heavy and light chain variable regions of huAbF46 (protein) scFv: EVQLVESGGGLVQPGGSLRLSCAASGFTFTDYYMSWVRQAPGKGLEWLGFIRNKANGYTTEYSASVKGRFTISRDNSKNTLYLQMNSLRAEDTAVYYCARDNWFAYWGQGTLVTVSSGLGGLGGGGSGGGGSGGSSGVGSDIQMTQSPSSLSASVGDRVTITCKSSQSLLASGNQNNYLAWHQQKPGKAPKMLIIWASTRVSGVPSRFSGSGSGTDFTLTISSLQPEDFATYYCQQSYSAPLTFGQGTKVEIKR |  |  |  |  |  | 
